84 variants from the RNAGym collection of RNA variant scans (doi:10.1073/pnas.2313332121) can be followed below.

B1: TPR t1 (parent)
chain: GACCAAUCUGCCCUCAGAGCUCGAGAACAUCUUCGGAUGCAGAGGAGGCAGGCUUCGGUGGCGCGAUAGCGCCAACGUCCUCAACCUCCAAUGCAUCCCACCACAUGAUGAUGCCUGAAGAGCCUUGGUUUUUUG

The data set covers variants of B1. The data set is described as follows: polymerase ribozyme fitness, log enrichment relative to wild type (log ratio); higher = more active; in vitro selection for triplet polymerase activity. The method in brief: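 Both subunits of a heterodimeric triplet polymerase ribozyme were given their own mutant library, built by PCR and transcribed. Each library was annealed with a biotinylated primer, the partner subunit and triplets, incubated frozen at −7 °C, and its extended constructs gel-excised, captured on streptavidin beads and amplified by RT-PCR, all in one round done in triplicate. Fitness is the logarithm of genotype enrichment relative to wild-type enrichment, with replicates averaged by inverse-variance weighting. That logarithm is base 2, and Illumina-sequenced genotypes needed ≥10 input reads and ≥1 read per output.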
With C13G G57C U109A A111U, the “polymerase ribozyme fitness (log ratio)” value is -4.71.
In the case of C13U A43C G71A C73G C82A C98G C102A A105U G117C, the “polymerase ribozyme fitness (log ratio)” value is -6.52.
In the case of C13G C72U U132A it was -2.7.
In the case of C13U A16G G63A U87A C98A C123G it was -6.74.
The result for C13G C76U reads -1.95.
For C13G C64U A83U A95C G110A G120U, the “polymerase ribozyme fitness (log ratio)” value was -3.89.
For C13G C82A A84G C123A, the “polymerase ribozyme fitness (log ratio)” value is -0.276.
In the case of C13G G63A G71A U112C it was -5; in that of C13U A29U U55A G60A C101G, -4.15; in that of C13G G61A C82A, -2.32.
On to C13U A16C U106G, for which the “polymerase ribozyme fitness (log ratio)” value is -2.43.
In the case of C13G G44A it was -2.85; in that of C13G G17U U38A C49G G61U, -4.63; in that of C13G U32C A37G C49U, -1.77.
In the case of C13G G45C C53U G63U C88A it was -3.62; in that of C13G G47A G63U U96G, -3.63; in that of C13G U96C, -2.28.
In the case of C13U A18C A37C G39U G57A it was -6.61.
Turning to C13G G47U G77U, the “polymerase ribozyme fitness (log ratio)” value was -3.79.
In the case of C13G C82A it was -2.47.
The result for C13U A43U U59G C72A C104U reads -2.63; that for C13G G47U C73U C114A, -4.1; that for C13U A27C, -2.05.
Turning to C13U A27U, the “polymerase ribozyme fitness (log ratio)” value is -2.33.
The result for C13G C124U reads 0.0672.
In the case of C13G C82G C102A it was -4.14; in that of C13G G69U G113A, -2.1; in that of C13U A26G G60A G93C, -4.31.
In the case of C13G U112A it was 0.148; in that of C13G G17U A18U C40G C56A G107A C114U, -6.86.
With C13G G69U, the “polymerase ribozyme fitness (log ratio)” value is -0.536.
The result for C13G C79A C86A reads -5.8.
For the variant C13G C64U C73A G120A A121U, the “polymerase ribozyme fitness (log ratio)” value was -0.317.
The result for C13U A26U C40U reads -2.81; that for C13U A24G G69U C104U A111U, -1.91; that for C13G G39A G113U C114A, -4.57.
On to C13G U78C, for which the “polymerase ribozyme fitness (log ratio)” value was -0.825.
The result for C13G C56U C86U U130A reads -3.33; that for C13U A16C C73A A95U G117U C124G, -1.04.
In the case of C13G U32C it was -2.08.
In the case of C13G G57C C72U G113A it was -2.96; in that of C13G U96C C101A, -3.35.
C13G C62A C94U: the “polymerase ribozyme fitness (log ratio)” value is -3.01.
The result for C13G G19U G71C U112C reads -4.61.
The result for C13U A90U G117C reads -3.61.
With C13G C64U A95G U112C C124U, the “polymerase ribozyme fitness (log ratio)” value was 0.563.
For C13G C72G C123U G135U, the “polymerase ribozyme fitness (log ratio)” value is -0.121.
On to C13U A18C A90C U96A, for which the “polymerase ribozyme fitness (log ratio)” value was -2.27.
The result for C13G G63C U87C reads -3.11.
The result for C13U A29G G52U A74C reads -1.84; that for C13U A16C, -0.368.
The result for C13U A37G A118G G127U G128U U131G reads -0.0788; that for C13U A66G C76U C88U G128C, -3.51; that for C13G C56G, -2.09.
As to C13G U14G C15A G71A G122A, the “polymerase ribozyme fitness (log ratio)” value was -4.63.
The result for C13G G47A C88U C102U U116G C123A reads -4.62.
The result for C13G G19U C73U G113U reads -5.86; that for C13G G39A, -2.78.
With C13G G39U, the “polymerase ribozyme fitness (log ratio)” value is -2.13.
The result for C13U A41G G48A G57U U132C reads -1.47.
Turning to C13G G120A, the “polymerase ribozyme fitness (log ratio)” value was -0.711.
As to C13G U21C C49U C53G G117A A119G, the “polymerase ribozyme fitness (log ratio)” value was -5.71.
The result for C13G G58C C64U U92C reads -3.39; that for C13G C62U G113A, -2.67; that for C13U A50U G77C, -1.
The result for C13G U78C A121C reads 0.61; that for C13U A37U A66G, -0.629.
C13G G36U C101U U112C: the “polymerase ribozyme fitness (log ratio)” value was -1.75.
Regarding C13G G51U A84C G127U, the “polymerase ribozyme fitness (log ratio)” value is -6.59.
The result for C13G U33C C72U U81A C101G G110U U132A reads -6.08; that for C13U C15A A91C, -4.3; that for C13U A18U G35U A50G G71A C124G, -7.8.
Turning to C13U A26G, the “polymerase ribozyme fitness (log ratio)” value was -2.64.
The result for C13G G93A C101G U112C U130A reads -4.16; that for C13U A43G G60A U92G U116C, -3.1.
In the case of C13G C115A it was -1.77; in that of C13U A18C C88G U92A, -2.48.
In the case of C13G G60U, the “polymerase ribozyme fitness (log ratio)” value is -2.05.
In the case of C13G G60A it was -1.21; in that of C13G C56U C85A, -3.69.
The result for C13G U59A reads -1.41; that for C13G C72G C85A, -3.33; that for C13G C72G, -0.869.
With C13G C72A, the “polymerase ribozyme fitness (log ratio)” value is -0.649.
